T1: threonine deaminase (Ilv1), wild-type (Saccharomyces cerevisiae, UniProt P00927)
T1 sequence (P00927 46-576): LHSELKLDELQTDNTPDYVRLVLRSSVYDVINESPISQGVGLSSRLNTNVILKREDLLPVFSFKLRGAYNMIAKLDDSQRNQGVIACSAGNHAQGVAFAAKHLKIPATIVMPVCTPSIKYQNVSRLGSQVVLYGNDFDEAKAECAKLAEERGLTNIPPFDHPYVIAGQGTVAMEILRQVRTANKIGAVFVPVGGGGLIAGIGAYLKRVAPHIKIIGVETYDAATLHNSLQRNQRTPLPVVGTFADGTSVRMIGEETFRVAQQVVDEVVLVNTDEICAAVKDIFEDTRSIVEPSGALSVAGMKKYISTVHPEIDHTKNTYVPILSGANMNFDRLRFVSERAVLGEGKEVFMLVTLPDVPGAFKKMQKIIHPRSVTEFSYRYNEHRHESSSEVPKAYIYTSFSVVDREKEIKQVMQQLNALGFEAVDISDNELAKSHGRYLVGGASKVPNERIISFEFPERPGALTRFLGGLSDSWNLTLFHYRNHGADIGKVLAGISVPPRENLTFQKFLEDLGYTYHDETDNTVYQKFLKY


Columns and labels:
[1] = molecular target: T1, threonine deaminase (Ilv1), wild-type; test: biochemical; details: read-out: GDH-coupled TD activity assay with purified Ilv1; 1.8-fold activation at 5 mM Va
[2] = molecular target: T1, threonine deaminase (Ilv1), wild-type; test: GDH-coupled NADH oxidation assay of TD activity with purified recombinant Ilv1; assay type: biochemical
purified protein = substrate: C[C@@H](O)[C@H](N)C(=O)O; test: purified protein; assay type: biochemical, Saccharomyces cerevisiae; details: pyridoxal-5'-phosphate

| fold induction at 5000 µM [1] | IC50 [2] [µM] | Molecule | K0.5 (purified protein) [mM] | kcat (purified protein) [s⁻¹] | kcat/Km (purified protein) [M⁻¹ s⁻¹] |
| --- | --- | --- | --- | --- | --- |
| 1.8 | – | CC(C)[C@H](N)C(=O)O [valine] | – | – | – |
| – | 270 ± 9 | CC[C@H](C)[C@H](N)C(=O)O [isoleucine] | – | – | – |

Further lines, the molecule ahead of its results:

| Molecule | fold induction at 5000 µM [1] | IC50 [2] [µM] | K0.5 (purified protein) [mM] | kcat (purified protein) [s⁻¹] | kcat/Km (purified protein) [M⁻¹ s⁻¹] |
| --- | --- | --- | --- | --- | --- |
| threonine deaminase (Ilv1), wild-type (Saccharomyces cerevisiae S288C) (protein, recombinant Ilv1 lacking the N-terminal 45 amino acid residues (mitochondrial localization signal), expressed in E. coli BL21(DE3)) LHSELKLDELQTDNTPDYVRLVLRSSVYDVINESPISQGVGLSSRLNTNVILKREDLLPVFSFKLRGAYNMIAKLDDSQRNQGVIACSAGNHAQGVAFAAKHLKIPATIVMPVCTPSIKYQNVSRLGSQVVLYGNDFDEAKAECAKLAEERGLTNIPPFDHPYVIAGQGTVAMEILRQVRTANKIGAVFVPVGGGGLIAGIGAYLKRVAPHIKIIGVETYDAATLHNSLQRNQRTPLPVVGTFADGTSVRMIGEETFRVAQQVVDEVVLVNTDEICAAVKDIFEDTRSIVEPSGALSVAGMKKYISTVHPEIDHTKNTYVPILSGANMNFDRLRFVSERAVLGEGKEVFMLVTLPDVPGAFKKMQKIIHPRSVTEFSYRYNEHRHESSSEVPKAYIYTSFSVVDREKEIKQVMQQLNALGFEAVDISDNELAKSHGRYLVGGASKVPNERIISFEFPERPGALTRFLGGLSDSWNLTLFHYRNHGADIGKVLAGISVPPRENLTFQKFLEDLGYTYHDETDNTVYQKFLKY | – | – | 40 ± 2.2 | 75 ± 4.1 | 1870 |
| threonine deaminase (Ilv1), H480Y variant (Saccharomyces cerevisiae S288C; H480Y) (protein, recombinant Ilv1 lacking the N-terminal 45 amino acid residues (mitochondrial localization signal), expressed in E. coli BL21(DE3)) LHSELKLDELQTDNTPDYVRLVLRSSVYDVINESPISQGVGLSSRLNTNVILKREDLLPVFSFKLRGAYNMIAKLDDSQRNQGVIACSAGNHAQGVAFAAKHLKIPATIVMPVCTPSIKYQNVSRLGSQVVLYGNDFDEAKAECAKLAEERGLTNIPPFDHPYVIAGQGTVAMEILRQVRTANKIGAVFVPVGGGGLIAGIGAYLKRVAPHIKIIGVETYDAATLHNSLQRNQRTPLPVVGTFADGTSVRMIGEETFRVAQQVVDEVVLVNTDEICAAVKDIFEDTRSIVEPSGALSVAGMKKYISTVHPEIDHTKNTYVPILSGANMNFDRLRFVSERAVLGEGKEVFMLVTLPDVPGAFKKMQKIIHPRSVTEFSYRYNEHRHESSSEVPKAYIYTSFSVVDREKEIKQVMQQLNALGFEAVDISDNELAKSYGRYLVGGASKVPNERIISFEFPERPGALTRFLGGLSDSWNLTLFHYRNHGADIGKVLAGISVPPRENLTFQKFLEDLGYTYHDETDNTVYQKFLKY | – | – | 42 ± 2.4 | 75 ± 3.6 | 1780 |
